From IntAct's records for PubMed 21108945

Columns and labels:
nbn_human NBN [1] = biological target: nbn_human NBN (UniProt O60934)
nbn_human NBN [2] = biological target: nbn_human NBN (UniProt O60934); remark: listed apart in the source

Chain of UniProt O60934 (O60934 whole entry): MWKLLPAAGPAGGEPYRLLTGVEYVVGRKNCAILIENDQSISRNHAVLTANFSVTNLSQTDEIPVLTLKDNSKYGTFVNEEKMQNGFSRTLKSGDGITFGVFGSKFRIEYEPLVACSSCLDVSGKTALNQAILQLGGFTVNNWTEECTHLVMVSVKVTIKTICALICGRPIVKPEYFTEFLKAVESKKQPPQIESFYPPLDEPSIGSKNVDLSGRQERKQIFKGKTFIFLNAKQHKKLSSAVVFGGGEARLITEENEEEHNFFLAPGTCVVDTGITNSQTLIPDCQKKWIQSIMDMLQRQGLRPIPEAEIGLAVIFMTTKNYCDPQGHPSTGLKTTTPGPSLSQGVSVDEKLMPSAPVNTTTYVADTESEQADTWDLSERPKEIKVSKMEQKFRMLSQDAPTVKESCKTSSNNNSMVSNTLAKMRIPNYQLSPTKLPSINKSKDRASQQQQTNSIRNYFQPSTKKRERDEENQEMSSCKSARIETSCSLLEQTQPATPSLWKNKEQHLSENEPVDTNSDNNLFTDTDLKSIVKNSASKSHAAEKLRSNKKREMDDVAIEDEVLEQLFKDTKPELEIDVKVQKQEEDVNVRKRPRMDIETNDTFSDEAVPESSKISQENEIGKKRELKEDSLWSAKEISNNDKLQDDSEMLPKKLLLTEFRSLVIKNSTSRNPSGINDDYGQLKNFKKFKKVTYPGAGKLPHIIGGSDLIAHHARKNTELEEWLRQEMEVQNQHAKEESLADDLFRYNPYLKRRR

effect of a mutation on the interaction (nbn_human NBN [1]): decreasing interaction
effect of a mutation on the interaction (nbn_human NBN [2]): disrupting interaction
Substance: Histone acetyltransferase p300 (Homo sapiens), Q09472 S106A
